These results are taken from paper PMC2358973, “A Cysteine Protease Is Critical for Babesia spp. Transmission in Haemaphysalis Ticks” (PLoS Pathogens, 2008).

The subject of data set [1] is T1, Cc1cc(=O)oc2cc(NC(=O)[C@H](CCCNC(=N)N)NC(=O)[C@H](CCCNC(=N)N)NC(=O)OCc3ccccc3)ccc12.
T1 construct: partial coding region (pPICZC) expressed in Pichia pastoris GS115, HiTrap chelating column purified; precursor 341 residues with 17-residue signal peptide
The experiment in a line: fluorogenic hydrolysis assay, Michaelis-Menten fit. The format is biochemical, Haemaphysalis longicornis. The settings on record: 25 mM citric acid/sodium phosphate, pH 6.0, 5 mM DTT. The text has this:
(§1) fluorogenic hydrolysis assay, Michaelis-Menten fit on longipain

Data set [2] deals with T2, Cc1cc(=O)oc2cc(NC(=O)[C@H](CCCNC(=N)N)NC(=O)[C@H](Cc3ccccc3)NC(=O)OCc3ccccc3)ccc12.
T2 construct: partial coding region (pPICZC) expressed in Pichia pastoris GS115, HiTrap chelating column purified; precursor 341 residues with 17-residue signal peptide
Briefly: fluorogenic hydrolysis assay, Michaelis-Menten fit. The format is biochemical, Haemaphysalis longicornis. The following applies: 25 mM citric acid/sodium phosphate, pH 6.0, 5 mM DTT.
Description: as §1

Usually Km stands for the concentration of substrate that gives half-maximal velocity. For orientation: kcat means the number of substrate molecules converted per active site and unit of time at saturation. As a reminder, the kcat/Km is the turnover number divided by the Michaelis constant. Regarding longipain (Haemaphysalis longicornis), in data set [1], the Km was 16.0 ± 0.2 µM, the catalytic constant (kcat) amounted to 800 s⁻¹ and the specificity constant (kcat/Km) was 5e+07 M⁻¹ s⁻¹. Besides, in data set [2], the Michaelis-Menten constant (Km) was found to be 12.1 ± 0.08 µM, the kcat was 550 s⁻¹ and the specificity constant (kcat/Km) stood at 4.5e+07 M⁻¹ s⁻¹.
